Results as given in the supplement of paper PMC10567573.

B1: TRAF3IP2 (parent)
chain: PGQPLPGASVRGLHPVQKVILNYP

Variants of: B1
Assay: protein stability index of a GFP-peptide fusion (GPS, HEK-293T) (PSI 1-6); higher = more stable
Conditions: c terminus: a fixed tail appended
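Further: lentivirally expressed fusions sorted by FACS into six bins by GFP to DsRed ratio, PSI derived from sequencing read proportions per bin multiplied by bin number.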

Protein stability index, by site and new letter:
P24: E 3.31 | H 2.38 | G 2.56 | C 2.69 | F 1.78 | L 2.13 | K 3.43 | D 3.68 | A 3.16 | I 1.77
Q17: K 2.97 | C 2.52 | G 3.1 | I 2.24 | H 2.9 | R 3 | W 1.87 | M 2.43 | P 3.51 | Y 3.02 | V 1.35 | E 2.95 | T 2.81 | F 1.26 | S 2.77 | N 2.8 | A 2.62 | L 1.71
V19: M 2.74 | D 3.23 | S 3.09 | Q 3.71 | Y 2.91 | I 3.26 | L 3.23 | P 3.29 | T 3.59 | K 3.32 | W 3.38 | C 3.16 | H 3.06 | A 3 | E 4.06 | R 2.82 | F 2.45 | N 3.59
L13: I 3.1 | D 3.68 | H 3.75 | A 3.38 | V 2.85 | G 3.31 | E 3.9 | T 3.56 | Q 3.69 | N 3.36 | M 3.59 | Y 2.26 | F 2.91 | P 3.84 | W 3.02 | S 3.42 | R 3.68 | K 3.5 | C 1.83
Y23: I 3.19 | K 4.43 | D 4.72 | R 3.5 | F 3.45 | M 3.36 | S 4.02 | G 3.71 | A 3.9 | W 2.52 | E 3.86 | P 4.11 | T 3.43 | V 3.26 | L 2.71 | H 3.95 | C 3.42 | N 3.63 | Q 4.07
L21: N 3.6 | F 2.79 | S 3.55 | R 2.76 | E 3.71 | V 2.87 | P 3.66 | K 3.99 | Q 3.79 | D 4.22 | W 2.22 | T 3.71 | Y 3.24 | G 3.64 | H 3.63 | I 3.5 | C 3.23 | M 3.45
P15: K 2.75 | C 2.13 | L 2.25 | S 2.79 | N 2.92 | R 3.39 | V 2.02 | H 3.08 | D 3.53 | Y 1.91 | I 1.76 | E 3.12 | G 2.76 | T 2.48 | Q 3.85 | M 2.05 | A 2.29
G7: D 3.22 | T 3.31 | M 3 | H 3.2 | Y 2.26 | C 2.59 | A 3.02 | E 3.55 | P 3.04 | K 2.76 | S 2.76 | I 3.05 | R 2.69 | V 3.26 | N 2.68 | L 3.44 | Q 3.12 | F 3.15 | W 2.09
H14: M 2.69 | R 3.37 | A 3.45 | F 2.61 | L 2.83 | C 3.3 | Q 3.67 | T 3.29 | W 2.15 | K 3.51 | V 2.96 | S 3.19 | E 3.96 | N 3.24 | G 2.59 | Y 2.82 | I 3.04 | P 3.67 | D 3.67
A8: F 2.51 | P 3.08 | D 3.19 | T 3.65 | L 3.21 | Y 2.71 | E 3.36 | C 2.27 | K 2.62 | R 2.89 | N 3.47 | Q 2.59 | S 3.27 | M 2.97 | H 2.97 | V 2.39 | G 3.24 | I 2.83
P6: Q 3.46 | W 2.53 | L 2.42 | T 3.21 | C 2.08 | N 3.21 | Y 2.72 | E 3.69 | H 3.44 | G 2.5 | D 3.37 | I 2.79 | V 3.46 | S 3.14 | K 2.54 | M 3.09 | F 3.17 | R 3.63
G12: C 2.72 | M 2.85 | A 3.69 | Q 3.42 | V 2.43 | P 3.14 | D 3.64 | Y 2.74 | N 2.94 | W 1.96 | F 2.3 | S 3.39 | K 3.2 | H 2.7 | I 2.63 | R 2.76 | L 2.12 | E 3.87
R11: G 2.73 | P 3.79 | C 3.3 | H 3.51 | Y 3.4 | A 2.6 | D 3.71 | K 2.88 | Q 3.79 | N 2.96 | W 2.08 | V 2.84 | L 2.25 | F 2.06 | I 2.96 | M 2.75 | E 3.19 | S 3.12 | T 3.2
N22: Q 2.98 | Y 1.95 | T 3.05 | H 2.49 | E 3.51 | G 2.54 | M 2.3 | F 1.59 | V 1.69 | C 2.51 | D 3.13 | S 3.27 | P 3.44 | L 1.83 | A 2.74 | R 4.18
V10: T 2.87 | D 2.96 | C 3.29 | G 3.54 | F 2.36 | Q 3.05 | W 2.62 | S 3 | M 3 | E 3.19 | I 2.84 | K 2.89 | L 2.61 | H 2.79 | N 3.5 | P 3.22 | R 2.57 | Y 3 | A 3.52
K18: R 2.64 | M 2.72 | S 3.27 | W 2.76 | Y 2.52 | F 2.3 | D 3.6 | V 2.02 | C 2.09 | P 2.99 | G 3.57 | N 2.65 | L 2.31 | I 2.08 | H 2.85 | T 3.38 | A 2.64 | Q 3.78
S9: Y 2.62 | Q 2.86 | R 2.22 | V 3.27 | K 3.19 | P 3.58 | T 3.48 | N 3.33 | A 3.99 | E 2.92 | G 3.2 | D 3.08 | M 2.68 | I 2.16 | F 2.21 | L 3.09 | H 3.5 | W 2.97
I20: L 3.45 | H 2.95 | K 4.01 | T 3.03 | C 3.25 | R 3.89 | M 3.42 | F 3.38 | P 3.36 | N 3.72 | V 2.93 | A 3.89 | S 4.67 | D 3.84 | E 3.91 | Q 3.87
V16: N 3.61 | C 2.93 | R 3.49 | W 2.54 | H 3.03 | S 3.46 | I 3.09 | A 3.24 | T 3.36 | Y 2.04 | D 4.08 | M 2.72 | F 2.83 | P 2.66 | E 3.44 | Q 3.63 | L 2.57
